Values of other authors, collected in article PMC4101496.

Target: Asp14 (UniProt position 14, FGAHADDVEIG)
Test: kinetics
Details: WT enzyme under turnover; pH profiles of Zn2+-BshB and Co2+-BshB reported as identical

For “N-acetylglucosamine-malate deacetylase (BshB) (Bacillus anthracis (per Table 1 accession; the review says BshB from both B. anthracis and B. cereus (BC1534) has been characterised and does not state which gave the pH profile))”, the pKa is listed as 8.5.
